Source: publication PMC5476585

Target: 25-nucleosome array (human)

- magnesium-dependent self-association of 25-nucleosome arrays (0.25, 0.5 and 1 mM MgCl2), chromatin in the pellet fraction after centrifugation: > 90%
Substance: Fpr4 FKBP (280-392) (from UniProt Q06205 280-392) (domain or fragment)
